Biological target: T1, Biot-CC2-LZ (Mus musculus, UniProt O88522)
T1 construct: made in house; host or cells: chemical synthesis
Assay: HTRF assay, complex with Biot-CC2-LZ (negative and positive controls)
Format: binding
Settings: 50 nM His-tagged protein with 50 nM Biot-CC2-LZ, Strept-Eu 2 nM, AntiHis-XL 7 nM
Description: The Homogeneous Time Resolved Fluorescence (HTRF®) assay reagents anti-(His)6 monoclonal antibody labeled with XL665 (MABHis6-XL) and streptavidin-Europium cryptate (streptavidin-EuK) were purchased from CIS-Bio. The His-CC2-LZ peptide (SEQ ID NO: 30 and 31) was purified as described in Agou et al., 2004a and the biotin tagged CC2-LZ peptide (SEQ ID NO: 28 and 29) was chemically synthezised as described in Wyler et al., 2007.
In HTRF experiments, the pure His-CC2-LZ protein was labeled by anti-His-XL665 mAb and biot-CC2-LZ was labeled by streptavidin-EuK. Dimerization of His-CC2-LZ and Biot-CC2-LZ leads the donor (Steptavidin-EuK) and the acceptor (anti-His-XL665) into close proximity. Upon excitation of Europium cryptate at 320 nm, FRET occurs between these two fluorophores, and XL665 re-emits a specific long-lived fluorescence at 665 nm.
All experiments were carried out in a black microplate Greiner (200 μl) at 25° C. The excitation wavelength was 320 nm and the fluorescence emissions were measured at 620 nm and at 665 nm to normalize the specific signal. Fluorescence emission was recorded at both wavelengths after an 50 μs delay, which reduces background noise introduced by the media and the free acceptor molecules. The FRET signal is calculated using the following equation:
ΔF=[(R−Rneg)/Rneg]*100 (1) […]

B1: His-CC2-LZ: six his-tagged CC2-LZ peptide, recombinant, SEQ ID NO: 30 (humanised 31) (protein)
chain: MGSHHHHHHSSGLVPRGSHMASLEDLRQQLQQAEEALVAKQELIDKLKEEAEQHKIVMETVPVLKAQADIYKADFQAERHAREKLVEKKEYLQEQLEQLQREFNKL
  FRET (ΔF %): ≦0%

— patent US20100240040A1, “METHOD FOR SCREENING FOR SELECTIVE MODULATOR OF THE NF-KB PATHWAY ACTIVATION” (INSTITUT PASTEUR, priority 2007, published 2010)
